The values below come from publication PMC10576031 (Proceedings of the National Academy of Sciences of the …, 2023).

Assay [1] concerns the target Human wild-type tau-K18 (residues 244 to 372), monomer (Homo sapiens, wild type, 2N4R (tau-F) …, UniProt P10636-8). Description: far-Western, overlay or dot blot.
The next assay addresses tau-K18 fibrils (Homo sapiens, wild type, 2N4R (tau-F) …, UniProt P10636-8). Kind of assay: far-Western, overlay or dot blot.

Chain of Human wild-type tau-K18 (residues 244 to 372), monomer (P10636 561-689): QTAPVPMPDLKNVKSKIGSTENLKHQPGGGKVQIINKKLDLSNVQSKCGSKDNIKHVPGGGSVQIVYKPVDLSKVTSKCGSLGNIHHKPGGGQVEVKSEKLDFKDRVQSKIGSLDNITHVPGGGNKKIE
Chain of tau-K18 fibrils (P10636 561-689): as above

B1: VDW nanobody (first generation, scaffold 1) (VHH)
VHH: QVQLQESGGGLVQPGGSLRLSCAASGRTFSSYNMGWFRQAPGKGREFVASITSSGDKSDYTDSVKGRFTISRDNAKNTMYLQMNNLKPEDTATYYCARGSVWIWYEPVDWSEGTQVTVSS
On to B1, for which the binding result (in assay [1]; in the assay with tau-K18 fibrils) was “binds” in each case.
